# Reference: IntAct's records for PubMed 27107116
# B1: Carbon catabolite-derepressing protein kinase (Saccharomyces cerevisiae), P06782 (parent)
# chain: MSSNNNTNTAPANANSSHHHHHHHHHHHHHGHGGSNSTLNNPKSSLADGAHIGNYQIVKTLGEGSFGKVKLAYHTTTGQKVALKIINKKVLAKSDMQGRIEREISYLRLLRHPHIIKLYDVIKSKDEIIMVIEYAGNELFDYIVQRDKMSEQEARRFFQQIISAVEYCHRHKIVHRDLKPENLLLDEHLNVKIADFGLSNIMTDGNFLKTSCGSPNYAAPEVISGKLYAGPEVDVWSCGVILYVMLCRRLPFDDESIPVLFKNISNGVYTLPKFLSPGAAGLIKRMLIVNPLNRISIHEIMQDDWFKVDLPEYLLPPDLKPHPEEENENNDSKKDGSSPDNDEIDDNLVNILSSTMGYEKDEIYESLESSEDTPAFNEIRDAYMLIKENKSLIKDMKANKSVSDELDTFLSQSPPTFQQQSKSHQKSQVDHETAKQHARRMASAITQQRTYHQSPFMDQYKEEDSTVSILPTSLPQIHRANMLAQGSPAASKISPLVTKKSKTRWHFGIRSRSYPLDVMGEIYIALKNLGAEWAKPSEEDLWTIKLRWKYDIGNKTNTNEKIPDLMKMVIQLFQIETNNYLVDFKFDGWESSYGDDTTVSNISEDEMSTFSAYPFLHLTTKLIMELAVNSQSN
# partner: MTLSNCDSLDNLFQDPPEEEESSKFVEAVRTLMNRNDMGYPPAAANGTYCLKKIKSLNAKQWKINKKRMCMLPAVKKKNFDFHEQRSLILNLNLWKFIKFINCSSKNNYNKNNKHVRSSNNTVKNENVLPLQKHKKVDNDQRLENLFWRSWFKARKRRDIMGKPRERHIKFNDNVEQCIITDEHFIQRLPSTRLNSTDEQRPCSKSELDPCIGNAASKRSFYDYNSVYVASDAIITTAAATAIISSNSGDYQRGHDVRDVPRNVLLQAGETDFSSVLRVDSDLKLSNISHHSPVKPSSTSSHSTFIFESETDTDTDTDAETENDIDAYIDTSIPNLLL
# B2: Protein REG2 (Saccharomyces cerevisiae), P38232 (parent)
# chain: B1 partner
# partner: B1 chain
# B3: Protein REG2 (Saccharomyces cerevisiae), P38232 (parent)
# chain: B1 partner
# Variants of: B1
# Conditions: with reg2_yeast REG2, P38232
row,Variant,effect of a mutation on the interaction
1,K84R,decreasing interaction strength
2,T210A,disrupting interaction strength

# Variants of: B2
# Conditions: with snf1_yeast SNF1, P06782
row,Variant,effect of a mutation on the interaction
1,I169M;F171A,with no effect

# Variants of: B3
# Conditions: with pp12_yeast GLC7, P32598
# Sequence of pp12_yeast GLC7, P32598 (P32598 whole entry): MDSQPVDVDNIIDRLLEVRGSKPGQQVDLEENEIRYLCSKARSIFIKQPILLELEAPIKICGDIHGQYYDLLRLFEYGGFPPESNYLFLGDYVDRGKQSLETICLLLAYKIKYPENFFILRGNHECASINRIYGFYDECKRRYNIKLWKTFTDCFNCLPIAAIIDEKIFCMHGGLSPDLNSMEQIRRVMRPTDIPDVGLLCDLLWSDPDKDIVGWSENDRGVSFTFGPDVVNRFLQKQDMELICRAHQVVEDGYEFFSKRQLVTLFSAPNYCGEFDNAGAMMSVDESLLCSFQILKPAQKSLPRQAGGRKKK
row,Variant,effect of a mutation on the interaction
1,I169M;F171A,disrupting interaction strength
